Results: PMC9482650, “Quantitative fragmentomics allow affinity mapping of interactomes” (Nature Communications, 2022)
Where a chain is given by its changes, count along the chain named.

Columns and labels:
Assay in all cases: holdup assay
Set-up in all cases: key: below the threshold = too weak to quantify, mostly under pKd 3.1 to 4
[1] = molecular target: T1, ARHGAP21, Q5T5U3
T1 sequence (Q5T5U3 45-169, limits assumed, looked up): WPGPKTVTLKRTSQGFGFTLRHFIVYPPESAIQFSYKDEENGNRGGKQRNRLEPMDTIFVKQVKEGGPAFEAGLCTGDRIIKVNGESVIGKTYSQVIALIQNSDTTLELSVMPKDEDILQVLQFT

[2] = molecular target: T2, HTRA3, P83110
T2 sequence (P83110 354-453, limits assumed, looked up): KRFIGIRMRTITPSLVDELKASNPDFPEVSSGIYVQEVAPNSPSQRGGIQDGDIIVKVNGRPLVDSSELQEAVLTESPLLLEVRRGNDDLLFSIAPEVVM

[3] = molecular target: TJP2_1, Q9UDY2
TJP2_1, Q9UDY2, sequence (Q9UDY2 24-128): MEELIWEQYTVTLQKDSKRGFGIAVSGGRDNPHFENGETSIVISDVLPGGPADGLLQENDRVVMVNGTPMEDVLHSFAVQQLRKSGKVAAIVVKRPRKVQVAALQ

[4] = molecular target: Inadl_9, Q8NI35
Inadl_9, Q8NI35, sequence (Q8NI35 1530-1615): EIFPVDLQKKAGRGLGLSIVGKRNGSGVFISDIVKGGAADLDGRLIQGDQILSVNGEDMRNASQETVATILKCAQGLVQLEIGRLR

[5] = molecular target: T3, NHERF3_4, Q5T2W1
T3 sequence (Q5T2W1 373-468, limits assumed, looked up): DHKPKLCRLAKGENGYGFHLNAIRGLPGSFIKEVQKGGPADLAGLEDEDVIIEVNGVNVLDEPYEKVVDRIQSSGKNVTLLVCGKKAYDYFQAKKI

[6] = molecular target: T4, LIN7B, Q9HAP6
T4 sequence (Q9HAP6 88-185, limits assumed, looked up): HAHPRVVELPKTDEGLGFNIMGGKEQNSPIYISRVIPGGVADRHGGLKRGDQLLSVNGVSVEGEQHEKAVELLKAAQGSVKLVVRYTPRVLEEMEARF

[7] = molecular target: PICK1, Q9NRD5
PICK1, Q9NRD5, sequence (Q9NRD5 17-115): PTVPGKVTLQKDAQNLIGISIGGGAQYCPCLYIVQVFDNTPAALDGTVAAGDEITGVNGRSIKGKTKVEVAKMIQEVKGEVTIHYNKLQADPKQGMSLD

[8] = molecular target: T5, GRIP1_5, Q9Y3R0
T5 sequence (Q9Y3R0 568-668, limits assumed, looked up): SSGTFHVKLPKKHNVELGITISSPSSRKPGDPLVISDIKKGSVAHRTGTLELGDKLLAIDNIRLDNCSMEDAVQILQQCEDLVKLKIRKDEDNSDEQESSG

[9] = molecular target: T6, SNTG1, Q9NSN8
T6 sequence (Q9NSN8 52-150, limits assumed, looked up): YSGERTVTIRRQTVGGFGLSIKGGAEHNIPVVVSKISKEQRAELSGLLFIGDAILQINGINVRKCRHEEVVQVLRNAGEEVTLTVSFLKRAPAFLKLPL

[10] = molecular target: MAGI1_1, Q96QZ7
MAGI1_1, Q96QZ7, sequence (Q96QZ7 1-106): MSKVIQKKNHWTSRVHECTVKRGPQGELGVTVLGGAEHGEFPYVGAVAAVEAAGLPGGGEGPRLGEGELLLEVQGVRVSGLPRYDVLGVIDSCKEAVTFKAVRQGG

[11] = molecular target: T7, TIAM2, Q8IVF5
T7 sequence (Q8IVF5 885-986, limits assumed, looked up): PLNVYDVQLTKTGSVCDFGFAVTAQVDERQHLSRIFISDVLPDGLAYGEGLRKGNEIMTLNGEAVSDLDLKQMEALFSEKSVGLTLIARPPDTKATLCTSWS

[12] = molecular target: GRASP, Q7Z6J2
GRASP, Q7Z6J2, sequence (Q7Z6J2 96-193): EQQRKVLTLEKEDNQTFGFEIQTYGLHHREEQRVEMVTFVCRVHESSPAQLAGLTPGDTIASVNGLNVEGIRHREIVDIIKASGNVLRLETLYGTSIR

[13] = molecular target: T8, MPDZ_5, O75970
T8 sequence (O75970 695-796, limits assumed, looked up): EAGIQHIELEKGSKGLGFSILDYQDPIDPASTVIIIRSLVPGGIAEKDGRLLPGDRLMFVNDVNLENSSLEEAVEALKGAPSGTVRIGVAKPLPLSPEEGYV

[14] = molecular target: PDZRN4_1, Q6ZMN7
PDZRN4_1, Q6ZMN7, sequence (Q6ZMN7 213-318): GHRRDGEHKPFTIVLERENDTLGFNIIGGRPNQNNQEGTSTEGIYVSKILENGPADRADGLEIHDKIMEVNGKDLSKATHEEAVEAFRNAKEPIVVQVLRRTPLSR

[15] = molecular target: T9, LNX2_3, Q8N448
T9 sequence (Q8N448 463-564, limits assumed, looked up): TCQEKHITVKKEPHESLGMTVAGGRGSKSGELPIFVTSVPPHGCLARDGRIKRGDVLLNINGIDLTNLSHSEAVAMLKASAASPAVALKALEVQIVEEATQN

[16] = molecular target: AHNAK1, Q09666
AHNAK1, Q09666, sequence (Q09666 4-100): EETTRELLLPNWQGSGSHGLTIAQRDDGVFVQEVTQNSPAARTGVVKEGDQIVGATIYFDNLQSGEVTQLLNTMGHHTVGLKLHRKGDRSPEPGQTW

[17] = molecular target: T10, LIN7A, O14910
T10 sequence (O14910 103-200, limits assumed, looked up): T4 sequence (Q9HAP6 88-185, limits assumed, looked up) with A2S, I20V, V35I, D42E, Q65H, Q77K, G78D, R89K

[18] = molecular target: MAGI2_6, Q86UL8
MAGI2_6, Q86UL8, sequence (Q86UL8 1141-1229): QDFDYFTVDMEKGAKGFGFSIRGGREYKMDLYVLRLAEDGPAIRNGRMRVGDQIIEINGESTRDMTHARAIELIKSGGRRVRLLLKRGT

[19] = molecular target: Inadl_1, Q8NI35
Inadl_1, Q8NI35, sequence (Q8NI35 113-229): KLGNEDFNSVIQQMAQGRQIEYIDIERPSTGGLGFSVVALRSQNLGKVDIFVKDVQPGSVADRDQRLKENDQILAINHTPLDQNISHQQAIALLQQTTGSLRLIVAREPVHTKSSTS

[20] = molecular target: T11, CARD11, Q9BXL7
T11 sequence (Q9BXL7 662-765, limits assumed, looked up): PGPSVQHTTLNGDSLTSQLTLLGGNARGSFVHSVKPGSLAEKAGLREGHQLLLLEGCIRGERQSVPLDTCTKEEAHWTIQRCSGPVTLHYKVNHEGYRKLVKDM

[21] = molecular target: GRID2IP_1, A4D2P6
GRID2IP_1, A4D2P6, sequence (A4D2P6 1-87): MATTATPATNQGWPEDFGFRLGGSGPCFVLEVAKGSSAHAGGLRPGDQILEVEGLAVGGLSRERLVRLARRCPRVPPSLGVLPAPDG

[22] = molecular target: IL16_4, Q14005
IL16_4, Q14005, sequence (Q14005 1229-1329): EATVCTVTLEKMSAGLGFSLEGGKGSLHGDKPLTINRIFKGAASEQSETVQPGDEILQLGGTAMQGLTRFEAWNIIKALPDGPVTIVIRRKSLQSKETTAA

[23] = molecular target: T12, SNTB1, Q13884
T12 sequence (Q13884 107-205, limits assumed, looked up): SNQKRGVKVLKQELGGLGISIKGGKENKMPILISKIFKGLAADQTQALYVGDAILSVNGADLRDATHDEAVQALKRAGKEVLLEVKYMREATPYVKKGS

[24] = molecular target: T13, LRRC7, Q96NW7
T13 sequence (Q96NW7 1440-1537, limits assumed, looked up): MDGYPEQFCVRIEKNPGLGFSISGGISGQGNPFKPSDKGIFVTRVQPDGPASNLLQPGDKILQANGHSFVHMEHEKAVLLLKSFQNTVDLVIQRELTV

[25] = plain residues with an end cap or a label only (N-terminal biotin on a linker: ahx)
[26] = plain residues with an end cap or a label only (N-terminal biotin on a linker: ttds)
[27] = plain residues with an end cap or a label only (N-terminal biotin on a linker: ado-ado)

## SSSNSEDTEM [NHERF3, Q5T2W1]
[1]; [25]
  pKd: below the threshold
[2]; [25]
  pKd: below the threshold
[3]; [25]
  pKd: below the threshold
[4]; [25]
  pKd: below the threshold
[5]; [25]
  pKd: below the threshold
[6]; [25]
  pKd: below the threshold
[7]; [25]
  pKd: below the threshold
[8]; [25]
  pKd: below the threshold
[9]; [25]
  pKd: below the threshold
[10]; [25]
  pKd: below the threshold
[11]; [25]
  pKd: below the threshold
[12]; [25]
  pKd: below the threshold
[13]; [25]
  pKd: below the threshold
[14]; [25]
  pKd: below the threshold
[15]; [25]
  pKd: below the threshold
[16]; [25]
  pKd: below the threshold
[17]; [25]
  pKd: below the threshold
[18]; [25]
  pKd: below the threshold
[19]; [25]
  pKd: below the threshold
[20]; [25]
  pKd: below the threshold
[21]; [25]
  pKd: below the threshold
[22]; [25]
  pKd: below the threshold
[23]; [25]
  pKd: below the threshold
[24]; [25]
  pKd: below the threshold

## SPLHSLETSL [ATP2B1, P20020]
[1]; [26]
  pKd: 3.58
[2]; [26]
  pKd: below the threshold
[3]; [26]
  pKd: 3.49
[4]; [26]
  pKd: below the threshold
[5]; [26]
  pKd: 3.94
[6]; [26]
  pKd: 4.22
[7]; [26]
  pKd: below the threshold
[8]; [26]
  pKd: below the threshold
[9]; [26]
  pKd: 4.36
[10]; [26]
  pKd: below the threshold
[11]; [26]
  pKd: below the threshold
[12]; [26]
  pKd: 4.22
[13]; [26]
  pKd: below the threshold
[14]; [26]
  pKd: 5.24
[15]; [26]
  pKd: below the threshold
[16]; [26]
  pKd: below the threshold
[17]; [26]
  pKd: below the threshold
[18]; [26]
  pKd: 4.24
[19]; [26]
  pKd: 3.69
[20]; [26]
  pKd: below the threshold
[21]; [26]
  pKd: below the threshold
[22]; [26]
  pKd: below the threshold
[23]; [26]
  pKd: 4.69
[24]; [26]
  pKd: 3.58

## DPLTPSRSQL [DGKK, Q5KSL6]
[1]; [26]
  pKd: below the threshold
[2]; [26]
  pKd: below the threshold
[3]; [26]
  pKd: below the threshold
[4]; [26]
  pKd: below the threshold
[5]; [26]
  pKd: below the threshold
[6]; [26]
  pKd: below the threshold
[7]; [26]
  pKd: below the threshold
[8]; [26]
  pKd: below the threshold
[9]; [26]
  pKd: below the threshold
[10]; [26]
  pKd: below the threshold
[11]; [26]
  pKd: below the threshold
[12]; [26]
  pKd: 4.17
[13]; [26]
  pKd: below the threshold
[14]; [26]
  pKd: below the threshold
[15]; [26]
  pKd: below the threshold
[16]; [26]
  pKd: below the threshold
[17]; [26]
  pKd: below the threshold
[18]; [26]
  pKd: below the threshold
[19]; [26]
  pKd: below the threshold
[20]; [26]
  pKd: below the threshold
[21]; [26]
  pKd: below the threshold
[22]; [26]
  pKd: below the threshold
[23]; [26]
  pKd: below the threshold
[24]; [26]
  pKd: below the threshold

## QKNKDKEYYV [NRXN3_rs746444206, Q9Y4C0]
[1]; [27]
  pKd: 4.09
[2]; [27]
  pKd: 4.64
[3]; [27]
  pKd: below the threshold
[4]; [27]
  pKd: 4.41
[5]; [27]
  pKd: below the threshold
[6]; [27]
  pKd: 3.59
[7]; [27]
  pKd: below the threshold
[8]; [27]
  pKd: below the threshold
[9]; [27]
  pKd: 3.53
[10]; [27]
  pKd: below the threshold
[11]; [27]
  pKd: 4.34
[12]; [27]
  pKd: below the threshold
[13]; [27]
  pKd: 4.34
[14]; [27]
  pKd: below the threshold
[15]; [27]
  pKd: below the threshold
[16]; [27]
  pKd: below the threshold
[17]; [27]
  pKd: below the threshold
[18]; [27]
  pKd: below the threshold
[19]; [27]
  pKd: 3.51
[20]; [27]
  pKd: below the threshold
[21]; [27]
  pKd: below the threshold
[22]; [27]
  pKd: below the threshold
[23]; [27]
  pKd: below the threshold
[24]; [27]
  pKd: below the threshold

## RNCSTNDSLL [ADRB2, P07550]
[1]; [25]
  pKd: 3.56
[2]; [25]
  pKd: below the threshold
[3]; [25]
  pKd: below the threshold
[4]; [25]
  pKd: below the threshold
[5]; [25]
  pKd: 3.54
[6]; [25]
  pKd: below the threshold
[7]; [25]
  pKd: below the threshold
[8]; [25]
  pKd: below the threshold
[9]; [25]
  pKd: below the threshold
[10]; [25]
  pKd: below the threshold
[11]; [25]
  pKd: below the threshold
[12]; [25]
  pKd: below the threshold
[13]; [25]
  pKd: below the threshold
[14]; [25]
  pKd: below the threshold
[15]; [25]
  pKd: below the threshold
[16]; [25]
  pKd: below the threshold
[17]; [25]
  pKd: below the threshold
[18]; [25]
  pKd: below the threshold
[19]; [25]
  pKd: below the threshold
[20]; [25]
  pKd: below the threshold
[21]; [25]
  pKd: below the threshold
[22]; [25]
  pKd: below the threshold
[23]; [25]
  pKd: below the threshold
[24]; [25]
  pKd: below the threshold
